In US20240148892A1:

Target: human full-length B7H3 expressed on MCF-7 cells (human) (UniProt Q5ZPR3)
Assay: cell-based or functional assay

Chain of human full-length B7H3 expressed on MCF-7 cells (human) (Q5ZPR3 29-534 limits assumed): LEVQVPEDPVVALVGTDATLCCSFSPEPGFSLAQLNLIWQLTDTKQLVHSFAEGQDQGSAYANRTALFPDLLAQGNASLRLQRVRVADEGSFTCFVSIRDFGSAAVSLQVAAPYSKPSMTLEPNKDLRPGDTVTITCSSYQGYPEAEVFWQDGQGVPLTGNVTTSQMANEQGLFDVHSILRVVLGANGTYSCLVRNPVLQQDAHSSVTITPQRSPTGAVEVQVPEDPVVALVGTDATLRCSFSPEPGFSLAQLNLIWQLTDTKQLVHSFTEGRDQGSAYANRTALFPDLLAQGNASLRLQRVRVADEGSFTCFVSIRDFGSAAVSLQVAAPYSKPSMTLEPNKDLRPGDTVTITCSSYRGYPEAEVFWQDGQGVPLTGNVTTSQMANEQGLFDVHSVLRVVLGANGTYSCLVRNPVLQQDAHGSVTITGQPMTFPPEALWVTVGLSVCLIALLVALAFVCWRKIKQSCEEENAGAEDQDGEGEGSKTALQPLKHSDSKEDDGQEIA

B1: reference ADC-1 (Daiichi Sankyo, DS7300) (protein, INN chains, looked up)
VH: QVQLVQSGAEVKKPGSSVKVSCKASGYTFTNYVMHWVRQAPGQGLEWMGYINPYNDDVKYNEKFKGRVTITADESTSTAYMELSSLRSEDTAVYYCARWGYYGSPLYYFDYWGQGTLVTVSS
VL: EIVLTQSPATLSLSPGERATLSCRASSRLIYMHWYQQKPGQAPRPLIYATSNLASGIPARFSGSGSGTDFTLTISSLEPEDFAVYYCQQWNSNPPTFGQGTKVEIK
modifications: deruxtecan payload
IC50 of inhibition of proliferation, A375 melanoma cells (CellTiter-Glo): 0.315 µM
IC50 of inhibition of proliferation, A549 lung cancer cells (CellTiter-Glo): 0.379 µM
IC50 of inhibition of proliferation, Calu-6 lung cancer cells (CellTiter-Glo): 0.428 µM
IC50 of inhibition of proliferation, HT-29 colorectal cancer cells (CellTiter-Glo): 1.14 µM
IC50 of inhibition of proliferation, MCF-7 breast cancer cells (CellTiter-Glo): 0.435 µM
IC50 of inhibition of proliferation, NCI-H358 lung cancer cells (CellTiter-Glo): 0.123 µM
IC50 of inhibition of proliferation, NCI-H1568 lung cancer cells (CellTiter-Glo): 0.0328 µM
IC50 of inhibition of proliferation, PC-3 prostate cancer cells (CellTiter-Glo): 0.959 µM
IC50 of inhibition of proliferation, U87 MG brain cancer cells (CellTiter-Glo): 0.354 µM
